Assay results reported in article PMC10786891, “Massively parallel profiling of RNA-targeting CRISPR-Cas13d”.

T1: EsCas13d, nuclease-dead (Eubacterium siraeum, UniProt B0MS50, R295A;H300A;R849A;H854A)
T1 sequence: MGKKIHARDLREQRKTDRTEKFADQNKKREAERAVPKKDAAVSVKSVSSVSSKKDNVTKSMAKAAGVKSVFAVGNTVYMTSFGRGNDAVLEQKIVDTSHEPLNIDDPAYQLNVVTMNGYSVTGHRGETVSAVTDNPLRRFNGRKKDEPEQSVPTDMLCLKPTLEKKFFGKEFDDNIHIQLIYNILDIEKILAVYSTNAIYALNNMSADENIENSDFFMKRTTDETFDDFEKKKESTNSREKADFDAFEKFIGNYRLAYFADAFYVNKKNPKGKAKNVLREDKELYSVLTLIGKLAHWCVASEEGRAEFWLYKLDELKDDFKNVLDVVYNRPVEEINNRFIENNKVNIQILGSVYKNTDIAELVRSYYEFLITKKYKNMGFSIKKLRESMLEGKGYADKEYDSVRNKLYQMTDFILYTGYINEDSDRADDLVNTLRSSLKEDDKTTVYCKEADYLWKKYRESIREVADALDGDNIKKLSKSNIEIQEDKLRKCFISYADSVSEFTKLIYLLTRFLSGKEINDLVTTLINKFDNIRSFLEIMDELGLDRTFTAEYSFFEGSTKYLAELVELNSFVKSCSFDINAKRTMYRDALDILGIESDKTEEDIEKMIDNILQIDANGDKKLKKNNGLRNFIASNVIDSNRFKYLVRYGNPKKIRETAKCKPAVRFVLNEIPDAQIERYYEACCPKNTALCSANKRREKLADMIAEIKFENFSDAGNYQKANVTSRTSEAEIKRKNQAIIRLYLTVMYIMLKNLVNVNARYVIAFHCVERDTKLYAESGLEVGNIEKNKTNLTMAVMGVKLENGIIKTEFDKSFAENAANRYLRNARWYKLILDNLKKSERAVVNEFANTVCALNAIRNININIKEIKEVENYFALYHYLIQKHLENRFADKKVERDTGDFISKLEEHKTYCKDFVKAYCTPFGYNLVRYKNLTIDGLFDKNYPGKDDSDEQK

B1: target 2 MT 5'PFS GUC 3'PFS UCG (mixed)
RNA 1: CACCCGUGCAAAAUUGCAGGGGUCUAAAACCUUCUCCAAAUUGUUUCAUCCU
RNA 2: GGGAAUGGAUCCACAUCUACGAAUUCGUCAGGAUGAAACAAUUUGGAGAAGUCGAGAUCGGAAGAGCACACGU
B2: target 2 MT 5'PFS GGU 3'PFS CCG (mixed)
RNA 1: CACCCGUGCAAAAUUGCAGGGGUCUAAAACCUUCUCCAAAUUGUUUCAUCCU
RNA 2: GGGAAUGGAUCCACAUCUACGAAUUCGGUAGGAUGAAACAAUUUGGAGAAGCCGAGAUCGGAAGAGCACACGU
B3: target 2 MT 5'PFS GUC 3'PFS UCA (mixed)
RNA 1: CACCCGUGCAAAAUUGCAGGGGUCUAAAACCUUCUCCAAAUUGUUUCAUCCU
RNA 2: GGGAAUGGAUCCACAUCUACGAAUUCGUCAGGAUGAAACAAUUUGGAGAAGUCAAGAUCGGAAGAGCACACGU
B4: target 2 MT 5'PFS GGU 3'PFS CCA (mixed)
RNA 1: CACCCGUGCAAAAUUGCAGGGGUCUAAAACCUUCUCCAAAUUGUUUCAUCCU
RNA 2: GGGAAUGGAUCCACAUCUACGAAUUCGGUAGGAUGAAACAAUUUGGAGAAGCCAAGAUCGGAAGAGCACACGU
B5: target 2 MT 5'PFS GUC 3'PFS UCC (mixed)
RNA 1: CACCCGUGCAAAAUUGCAGGGGUCUAAAACCUUCUCCAAAUUGUUUCAUCCU
RNA 2: GGGAAUGGAUCCACAUCUACGAAUUCGUCAGGAUGAAACAAUUUGGAGAAGUCCAGAUCGGAAGAGCACACGU
B6: target 2 MT 5'PFS UUA 3'PFS UAA (mixed)
RNA 1: CACCCGUGCAAAAUUGCAGGGGUCUAAAACCUUCUCCAAAUUGUUUCAUCCU
RNA 2: GGGAAUGGAUCCACAUCUACGAAUUCUUAAGGAUGAAACAAUUUGGAGAAGUAAAGAUCGGAAGAGCACACGU
B7: target 2 MT 5'PFS CAG 3'PFS ACU (mixed)
RNA 1: CACCCGUGCAAAAUUGCAGGGGUCUAAAACCUUCUCCAAAUUGUUUCAUCCU
RNA 2: GGGAAUGGAUCCACAUCUACGAAUUCCAGAGGAUGAAACAAUUUGGAGAAGACUAGAUCGGAAGAGCACACGU
B8: target 1 U11A,G17U (mixed)
RNA 1: CACCCGUGCAAAAAUGCAGGGGUCUAAAACUGAGCGGAUAACCUCUCUAUGG
RNA 2: GGGAAUGGAUCCACAUCUACGAAUUCGUACCAUAUAGAGGAUAUCCGCUCACCGAGAUCGGAAGAGCACACGU
B9: target 2 MT 5'PFS AUU 3'PFS AUU (mixed)
RNA 1: CACCCGUGCAAAAUUGCAGGGGUCUAAAACCUUCUCCAAAUUGUUUCAUCCU
RNA 2: GGGAAUGGAUCCACAUCUACGAAUUCAUUAGGAUGAAACAAUUUGGAGAAGAUUAGAUCGGAAGAGCACACGU
B10: target 2 MT 5'PFS UGG 3'PFS AAA (mixed)
RNA 1: CACCCGUGCAAAAUUGCAGGGGUCUAAAACCUUCUCCAAAUUGUUUCAUCCU
RNA 2: GGGAAUGGAUCCACAUCUACGAAUUCUGGAGGAUGAAACAAUUUGGAGAAGAAAAGAUCGGAAGAGCACACGU
B11: target 2 MT 5'PFS CUC 3'PFS CAG (mixed)
RNA 1: CACCCGUGCAAAAUUGCAGGGGUCUAAAACCUUCUCCAAAUUGUUUCAUCCU
RNA 2: GGGAAUGGAUCCACAUCUACGAAUUCCUCAGGAUGAAACAAUUUGGAGAAGCAGAGAUCGGAAGAGCACACGU
B12: target 2 MT 5'PFS CUC 3'PFS CAA (mixed)
RNA 1: CACCCGUGCAAAAUUGCAGGGGUCUAAAACCUUCUCCAAAUUGUUUCAUCCU
RNA 2: GGGAAUGGAUCCACAUCUACGAAUUCCUCAGGAUGAAACAAUUUGGAGAAGCAAAGAUCGGAAGAGCACACGU
B13: target 2 MT 5'PFS CUC 3'PFS CAC (mixed)
RNA 1: CACCCGUGCAAAAUUGCAGGGGUCUAAAACCUUCUCCAAAUUGUUUCAUCCU
RNA 2: GGGAAUGGAUCCACAUCUACGAAUUCCUCAGGAUGAAACAAUUUGGAGAAGCACAGAUCGGAAGAGCACACGU
B14: target 2 MT 5'PFS CUC 3'PFS CAU (mixed)
RNA 1: CACCCGUGCAAAAUUGCAGGGGUCUAAAACCUUCUCCAAAUUGUUUCAUCCU
RNA 2: GGGAAUGGAUCCACAUCUACGAAUUCCUCAGGAUGAAACAAUUUGGAGAAGCAUAGAUCGGAAGAGCACACGU
B15: target 2 MT 5'PFS UGU 3'PFS AUU (mixed)
RNA 1: CACCCGUGCAAAAUUGCAGGGGUCUAAAACCUUCUCCAAAUUGUUUCAUCCU
RNA 2: GGGAAUGGAUCCACAUCUACGAAUUCUGUAGGAUGAAACAAUUUGGAGAAGAUUAGAUCGGAAGAGCACACGU
B16: target 2 MT 5'PFS UGG 3'PFS AAU (mixed)
RNA 1: CACCCGUGCAAAAUUGCAGGGGUCUAAAACCUUCUCCAAAUUGUUUCAUCCU
RNA 2: GGGAAUGGAUCCACAUCUACGAAUUCUGGAGGAUGAAACAAUUUGGAGAAGAAUAGAUCGGAAGAGCACACGU
B17: target 2 MT 5'PFS GCG 3'PFS CUU (mixed)
RNA 1: CACCCGUGCAAAAUUGCAGGGGUCUAAAACCUUCUCCAAAUUGUUUCAUCCU
RNA 2: GGGAAUGGAUCCACAUCUACGAAUUCGCGAGGAUGAAACAAUUUGGAGAAGCUUAGAUCGGAAGAGCACACGU
B18: target 2 MT 5'PFS UCA 3'PFS CCU (mixed)
RNA 1: CACCCGUGCAAAAUUGCAGGGGUCUAAAACCUUCUCCAAAUUGUUUCAUCCU
RNA 2: GGGAAUGGAUCCACAUCUACGAAUUCUCAAGGAUGAAACAAUUUGGAGAAGCCUAGAUCGGAAGAGCACACGU
B19: target 1 insU 3' of 17,insG 3' of 2 (mixed)
RNA 1: CACCCGUGCAAAAAUGCAGGGGUCUAAAACUGAGCGGAUAACCUCUCUAUGG
RNA 2: GGGAAUGGAUCCACAUCUACGAAUUCGUACCAUAGUAGAGGUUAUCCGCUCGACCGAGAUCGGAAGAGCACACGU
B20: target 2 MT 5'PFS UAU 3'PFS UAU (mixed)
RNA 1: CACCCGUGCAAAAUUGCAGGGGUCUAAAACCUUCUCCAAAUUGUUUCAUCCU
RNA 2: GGGAAUGGAUCCACAUCUACGAAUUCUAUAGGAUGAAACAAUUUGGAGAAGUAUAGAUCGGAAGAGCACACGU
B21: target 2 MT 5'PFS UCA 3'PFS CCA (mixed)
RNA 1: CACCCGUGCAAAAUUGCAGGGGUCUAAAACCUUCUCCAAAUUGUUUCAUCCU
RNA 2: GGGAAUGGAUCCACAUCUACGAAUUCUCAAGGAUGAAACAAUUUGGAGAAGCCAAGAUCGGAAGAGCACACGU
B22: target 2 MT 5'PFS UCA 3'PFS CCG (mixed)
RNA 1: CACCCGUGCAAAAUUGCAGGGGUCUAAAACCUUCUCCAAAUUGUUUCAUCCU
RNA 2: GGGAAUGGAUCCACAUCUACGAAUUCUCAAGGAUGAAACAAUUUGGAGAAGCCGAGAUCGGAAGAGCACACGU
B23: target 2 MT 5'PFS CUU 3'PFS AUA (mixed)
RNA 1: CACCCGUGCAAAAUUGCAGGGGUCUAAAACCUUCUCCAAAUUGUUUCAUCCU
RNA 2: GGGAAUGGAUCCACAUCUACGAAUUCCUUAGGAUGAAACAAUUUGGAGAAGAUAAGAUCGGAAGAGCACACGU
B24: target 2 MT 5'PFS GCG 3'PFS CUC (mixed)
RNA 1: CACCCGUGCAAAAUUGCAGGGGUCUAAAACCUUCUCCAAAUUGUUUCAUCCU
RNA 2: GGGAAUGGAUCCACAUCUACGAAUUCGCGAGGAUGAAACAAUUUGGAGAAGCUCAGAUCGGAAGAGCACACGU
B25: target 2 MT 5'PFS GCC 3'PFS UGC (mixed)
RNA 1: CACCCGUGCAAAAUUGCAGGGGUCUAAAACCUUCUCCAAAUUGUUUCAUCCU
RNA 2: GGGAAUGGAUCCACAUCUACGAAUUCGCCAGGAUGAAACAAUUUGGAGAAGUGCAGAUCGGAAGAGCACACGU
B26: target 2 MT 5'PFS GCC 3'PFS UGA (mixed)
RNA 1: CACCCGUGCAAAAUUGCAGGGGUCUAAAACCUUCUCCAAAUUGUUUCAUCCU
RNA 2: GGGAAUGGAUCCACAUCUACGAAUUCGCCAGGAUGAAACAAUUUGGAGAAGUGAAGAUCGGAAGAGCACACGU
B27: target 2 MT 5'PFS UAC 3'PFS AUA (mixed)
RNA 1: CACCCGUGCAAAAUUGCAGGGGUCUAAAACCUUCUCCAAAUUGUUUCAUCCU
RNA 2: GGGAAUGGAUCCACAUCUACGAAUUCUACAGGAUGAAACAAUUUGGAGAAGAUAAGAUCGGAAGAGCACACGU
B28: target 2 MT 5'PFS UAC 3'PFS AUC (mixed)
RNA 1: CACCCGUGCAAAAUUGCAGGGGUCUAAAACCUUCUCCAAAUUGUUUCAUCCU
RNA 2: GGGAAUGGAUCCACAUCUACGAAUUCUACAGGAUGAAACAAUUUGGAGAAGAUCAGAUCGGAAGAGCACACGU

Biological target: T1, EsCas13d, nuclease-dead
Experiment: crRNA (strand 1, pre-loaded); Mg2+; 40 mM Tris-HCl pH 7.5, 150 mM NaCl, 6 mM MgCl2, 1 mM DTT, 0.1% Tween-20, 0.2 mg/ml BSA; 25 C; 10 min per concentration, then washed
Conditions: tags: His6-TwinStrep-SUMO cleaved; N-terminal SNAP kept (SNAP-Surface 488); label: 3' end held by stalled T7 RNA polymerase

For B1, which Kd is on record?
Its Kd is 28 ± 6 nM.

For B2, which Kd is on record?
Its Kd is 17.4 ± 1.8 nM.

How did the Kd turn out when B3 was run?
The Kd was 17 ± 5 nM.

How did the Kd turn out when B4 was run?
Its Kd is 24 ± 5 nM.

For B5, which Kd is on record?
Its Kd is 42 ± 6 nM.

With B6 as the binder, how does the Kd read?
The Kd was 17 ± 4 nM.

How did the Kd turn out when B7 was run?
The Kd was 6.2 ± 2.2 nM.

Which Kd does the source give for B8 here?
Its Kd is 84 ± 29 nM.

With B9 as the binder, how does the Kd read?
The Kd was 5.5 ± 0.4 nM.

How did the Kd turn out when B10 was run?
Its Kd is 3.3 ± 0.4 nM.

For B11, which Kd is on record?
Its Kd is 1.93 ± 0.21 nM.

B12 was tested. Which Kd did it give?
Its Kd is 1.72 ± 0.2 nM.

With B13 as the binder, how does the Kd read?
The Kd was 3.9 ± 0.9 nM.

With B14 as the binder, how does the Kd read?
The Kd was 1.82 ± 0.19 nM.

For B15, which Kd is on record?
Its Kd is 11.9 ± 1.7 nM.

B16 was tested. Which Kd did it give?
The Kd was 5.9 ± 0.7 nM.

Which Kd does the source give for B17 here?
Its Kd is 24 ± 6 nM.

With B18 as the binder, how does the Kd read?
The Kd was ~30 nM.

With B19 as the binder, how does the Kd read?
The Kd was 19.8 ± 2.5 nM.

For B20, which Kd is on record?
Its Kd is 35 ± 8 nM.

B21 was tested. Which Kd did it give?
The Kd was 10 ± 4 nM.

For B22, which Kd is on record?
The Kd was 5 ± 0.9 nM.

How did the Kd turn out when B23 was run?
Its Kd is 4.7 ± 0.7 nM.

How did the Kd turn out when B24 was run?
Its Kd is 21 ± 4 nM.

Which Kd does the source give for B25 here?
Its Kd is 10.9 ± 1.7 nM.

B26 was tested. Which Kd did it give?
The Kd was 17 ± 5 nM.

With B27 as the binder, how does the Kd read?
Its Kd is 4.9 ± 0.7 nM.

B28 was tested. Which Kd did it give?
The Kd was 7 ± 1.7 nM.
